Ends that are not written are not given here.
Tests used:
[1] = target: agarose-immobilized streptavidin (UniProt P22629); test: titer after 2 h with 5 ul immobilized streptavidin
[2] = target: agarose-immobilized streptavidin (UniProt P22629); test: dot blot of phage eluted at pH 2.2 from 5 ul immobilized streptavidin
[3] = target: agarose-immobilized anhydro-trypsin (UniProt P00760); test: dot blot of phage eluted at pH 2.2 from 2 ul immobilized anhydro-trypsin
[4] = target: agarose-immobilized anhydro-trypsin (UniProt P00760); test: titer after 1 h with 2 ul immobilized anhydro-trypsin
[5] = target: agarose-immobilized anhydro-trypsin (UniProt P00760); test: titer after 4 h with 5 ul immobilized anhydro-trypsin
[6] = target: agarose-immobilized anhydro-trypsin (UniProt P00760); test: titer after 4 h with 10 ul immobilized anhydro-trypsin
[7] = target: agarose-immobilized anhydro-trypsin (UniProt P00760); test: titer after 2 h with 5 ul immobilized anhydro-trypsin
trypsin [8] = target: trypsin (UniProt P00760); test: pH 2.2 eluate from immobilized active trypsin, bound in TBS pH 7.5
Sequence of trypsin (P00760 24-246): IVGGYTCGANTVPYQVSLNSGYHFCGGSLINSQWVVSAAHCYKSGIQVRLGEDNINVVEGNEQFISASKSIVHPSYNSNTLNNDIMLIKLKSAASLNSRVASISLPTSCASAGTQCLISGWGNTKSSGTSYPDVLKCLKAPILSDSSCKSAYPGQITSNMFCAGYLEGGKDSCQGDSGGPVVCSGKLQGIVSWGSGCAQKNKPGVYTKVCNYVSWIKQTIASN

[9] = target: agarose-immobilized anhydro-trypsin (UniProt P00760); test: titer after 1 h with 10 ul immobilized anhydro-trypsin
[10] = target: agarose-immobilized anhydro-trypsin (UniProt P00760); test: dot blot of phage eluted at pH 2.2 from 10 ul immobilized anhydro-trypsin
[11] = target: agarose-immobilized anhydro-trypsin (UniProt P00760); test: titer after 4 h with 2 ul immobilized anhydro-trypsin
[12] = target: agarose-immobilized anhydro-trypsin (UniProt P00760); test: dot blot of phage eluted at pH 2.2 from 5 ul immobilized anhydro-trypsin
[13] = target: agarose-immobilized streptavidin (UniProt P22629); test: titer after 1 h with 5 ul immobilized streptavidin
[14] = target: agarose-immobilized anhydro-trypsin (UniProt P00760); test: titer after 2 h with 2 ul immobilized anhydro-trypsin
[15] = target: agarose-immobilized anhydro-trypsin (UniProt P00760); test: titer after 1 h with 5 ul immobilized anhydro-trypsin
[16] = target: agarose-immobilized anhydro-trypsin (UniProt P00760); test: titer after 2 h with 10 ul immobilized anhydro-trypsin
trypsin [17] = target: trypsin (UniProt P00760); test: pH 2.2 eluate from immobilized active trypsin, bound in CBS pH 6.5
[18] = target: agarose-immobilized streptavidin (UniProt P22629); test: titer after 4 h with 5 ul immobilized streptavidin
M13mp18 phage [19] = test: titer of M13MP18 after normal rabbit IgG
M13mp18 phage [20] = test: titer of M13MP18 after normal rabbit IgG and protein A beads
[21] = target: agarose-immobilized anhydro-trypsin (UniProt P00760); test: pfu acid eluted from anhydrotrypsin beads, experiment 2
trypsin [22] = target: trypsin (UniProt P00760); test: pfu eluted from trypsin beads
trypsin [23] = target: trypsin (UniProt P00760); test: pfu acid eluted from trypsin beads
[24] = target: agarose-immobilized anhydro-trypsin (UniProt P00760); test: pfu eluted from anhydrotrypsin beads
[25] = target: agarose-immobilized anhydro-trypsin (UniProt P00760); test: pfu acid eluted from anhydrotrypsin beads, experiment 1
[26] = target: agarose-immobilized anhydro-trypsin (UniProt P00760); test: phage titer after incubation with anhydrotrypsin beads
[27] = target: T1, human neutrophil elastase (human, UniProt P08246 30-247); test: pfu acid eluted from HNE beads
T1 construct: also called HNE; immobilized HNE
T1 sequence (looked up): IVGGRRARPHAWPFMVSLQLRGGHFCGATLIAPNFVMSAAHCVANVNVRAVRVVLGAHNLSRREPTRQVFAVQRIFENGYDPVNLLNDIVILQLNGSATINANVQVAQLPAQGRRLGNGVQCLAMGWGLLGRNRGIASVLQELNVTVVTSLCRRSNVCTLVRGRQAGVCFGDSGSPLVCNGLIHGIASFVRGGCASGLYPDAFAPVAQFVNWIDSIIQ

[28] = target: human Cathepsin G (human) (UniProt P08311); test: Cat-G beads, pH 4.5 eluate
Sequence of human Cathepsin G (human) (P08311 21-244 limits assumed): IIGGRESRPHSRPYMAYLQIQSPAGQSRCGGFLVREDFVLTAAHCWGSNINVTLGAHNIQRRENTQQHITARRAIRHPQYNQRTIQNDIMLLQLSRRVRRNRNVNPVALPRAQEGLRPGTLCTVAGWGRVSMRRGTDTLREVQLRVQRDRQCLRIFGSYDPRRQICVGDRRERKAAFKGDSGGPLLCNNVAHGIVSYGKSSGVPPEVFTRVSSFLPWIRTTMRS

[29] = target: T1, human neutrophil elastase; test: HNE beads, abbreviated elution, SUM of pH fractions
Description: (§1) To test if the changes at positions 15, 16, 18, and 19 of the ITI-DI-III fusion protein influence binding of display phage to HNE beads, abbreviated pH elution profiles were measured. […] The beads were washed and phage were eluted as described (Example III), except that only three pH elutions were performed: pH 7.0, 3.5, and 2.0.

[30] = target: T1, human neutrophil elastase; test: HNE beads, abbreviated elution, pH 7.0
Description: as §1

[31] = target: human Cathepsin G (human) (UniProt P08311); test: Cat-G beads, pH 4.0 eluate
[32] = target: T1, human neutrophil elastase; test: HNE beads, abbreviated elution, pH 3.5
Description: as §1

[33] = target: T1, human neutrophil elastase; test: HNE beads, abbreviated elution, pH 2.0
Description: as §1

[34] = target: human Cathepsin G (human) (UniProt P08311); test: Cat-G beads, pH 2.5 eluate
[35] = target: human Cathepsin G (human) (UniProt P08311); test: Cat-G beads, pH 7.0 eluate
[36] = target: human Cathepsin G (human) (UniProt P08311); test: Cat-G beads, pH 2.0 eluate
[37] = target: human Cathepsin G (human) (UniProt P08311); test: Cat-G beads, pH 6.0 eluate
[38] = target: human Cathepsin G (human) (UniProt P08311); test: Cat-G beads, pH 3.0 eluate
[39] = target: human Cathepsin G (human) (UniProt P08311); test: Cat-G beads, SUM of all pH elution fractions
[40] = target: human Cathepsin G (human) (UniProt P08311); test: Cat-G beads, pH 5.0 eluate
[41] = target: human Cathepsin G (human) (UniProt P08311); test: Cat-G beads, pH 3.5 eluate
[42] = target: human Cathepsin G (human) (UniProt P08311); test: Cat-G beads, pH 5.5 eluate
[43] = target: T1, human neutrophil elastase; test: abbreviated pH elution from HNE beads
Description: as §1

[44] = target: T1, human neutrophil elastase; test: extended pH elution from HNE beads
Description: To test if phage displaying the ITI-DI-III fusion protein interact strongly with the proteases human neutrophil elastase (HNE) or cathepsin-G, aliquots of display phage were incubated with agarose-immobilized HNE or cathepsin-G beads (HNE beads or Cat-G beads, respectively). […] The procession in lowering pH during the elution was: pH 7.0, 6.0, 5.5, 5.0, 4.5, 4.0, 3.5, 3.0, 2.5, and 2.0. Following elution and neutralization, the various input, wash, and pH elution fractions were titered.

Sequence of agarose-immobilized streptavidin (P22629 37-163 limits assumed): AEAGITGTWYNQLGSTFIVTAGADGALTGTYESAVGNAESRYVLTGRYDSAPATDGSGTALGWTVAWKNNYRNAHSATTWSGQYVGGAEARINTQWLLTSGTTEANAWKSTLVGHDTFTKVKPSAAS
Sequence of agarose-immobilized anhydro-trypsin (P00760 24-246): as the sequence (P00760 24-246) above

Molecule: MK phage
- percent residual titer [1]: 96%
- percent of total phage recovered in elution buffer [2]: < 1%
- percent of total phage recovered in elution buffer [3]: < 1%
- percent residual titer [4]: 97%
- percent residual titer [5]: 96%
- percent residual titer [6]: 106%
- percent residual titer [7]: 111%
- percent of input phage (trypsin [8]): 0.00034%
- total pfu recovered in elution buffer (trypsin [8]): 1.48e+06 pfu
- percent residual titer [9]: 99%
- percent of total phage recovered in elution buffer [10]: < 1%
- percent residual titer [11]: 95%
- percent of total phage recovered in elution buffer [12]: < 1%
- percent residual titer [13]: 106%
- percent residual titer [14]: 103%
- percent residual titer [15]: 110%
- percent residual titer [16]: 93%
- percent of input phage (trypsin [17]): 0.00028%
- total pfu recovered in elution buffer (trypsin [17]): 1.35e+06 pfu
- percent residual titer [18]: 98%

Molecule: normal rabbit IgG / normal rabbit serum (antibody)
- percent of input phage (pfu) (M13mp18 phage [19]): 104%
- percent of input phage (pfu) (M13mp18 phage [20]): 88%

Molecule: M13mp18 phage
- binding relative to M13MP18 [21]: 1 fold
- eluted phage, percent of input [21]: 0.3%
- binding relative to M13MP18 (trypsin [22]): 1 fold
- eluted phage, percent of input (trypsin [22]): 0.00023%
- binding relative to M13MP18 (trypsin [23]): 1 fold
- eluted phage, percent of input (trypsin [23]): 0.0005%
- binding relative to M13MP18 [24]: 1 fold
- eluted phage, percent of input [24]: 0.1%
- binding relative to M13MP18 [25]: 1 fold
- eluted phage, percent of input [25]: 0.2%
- pfu after incubation as percent of input [26]: 121%
- binding relative to M13MP18 [27]: 1 fold
- eluted phage, percent of input [27]: 0.0003%

B1: MA-ITI phage (other, human, UniProt P02760 227-281, looked up)
chain: KEDSCQLGYSAGPCMGMTSRYFYNGTSMACETFQYGGCMGNGNNFVTEKECLQTC
notes: residue range counts on the mature ITI light chain (UTI), not on the AMBP precursor entry; also called MA-ITI 2; MA-ITT; not shown: M13 gene III protein, mature
- fraction of input [28]: 1.5e-06
- total pfu in sample [28]: 670000 pfu
- fraction of input [29]: 1.4e-05
- fraction of input [30]: 1e-05
- fraction of input [31]: 9.6e-07
- total pfu in sample [31]: 440000 pfu
- fraction of input [32]: 3e-06
- fraction of input [33]: 1e-06
- fraction of input [34]: 5.9e-07
- total pfu in sample [34]: 270000 pfu
- fraction of input [35]: 1.3e-05
- total pfu in sample [35]: 6.1e+06 pfu
- fraction of input [36]: 7e-07
- total pfu in sample [36]: 320000 pfu
- fraction of input [37]: 5e-06
- total pfu in sample [37]: 2.3e+06 pfu
- fraction of input [38]: 7.8e-07
- total pfu in sample [38]: 360000 pfu
- fraction of input [39]: 3e-05
- total pfu in sample [39]: 1.4e+07 pfu
- fraction of input [40]: 2.4e-06
- total pfu in sample [40]: 1.1e+06 pfu
- fraction of input [41]: 9.6e-07
- total pfu in sample [41]: 440000 pfu
- fraction of input [42]: 2.6e-06
- total pfu in sample [42]: 1.2e+06 pfu

B2: MA-ITI-E7 phage (designed binder)
chain: KEDSCQLGYSAGPCVAMFPRYFYNGTSMACETFQYGGCMGNGNNFVTEKECLQTCR
modifications: not fully specified; cysteine pairing not given here
notes: two phage strains (1 and 2) of the same construct were tested; also called MA-ITI-E7 1; MA-ITI-E7 2; not shown: The join to the display carrier
- fold greater total fraction of input eluted than MA-ITI phage [43]: 10 fold
- fold lower total fraction of input eluted than EpiNE-7 phage [43]: 40 fold
- fraction of input [32]: 8e-05
- fold lower total fraction of input eluted than EpiNE-7 phage [44]: ~40 fold

— patent publication US20070259417A1 (published 2007)
